Assay: soluble on expression in E. coli; label from the status in PepcDB or PDB records

Row | Sequence | soluble on expression in E. coli
1 | MAHHHHHHMSDDDDKIYIYSDLFSKNFSDDEKDDSYEREKQVYSGSETQNAENEYSKLRAQNSTILNNYFDNDNIKNVENLKSNDPDQIDLILFPVNKNYYMNLFDGQLIENIHSIKLRKAGFYAIYVENNNNSKWDGIYFGLSRMQVELDYKLITKKNKDGGEYEKRNTSSYDNTESVQNTVGSEKEETENKNEETSNYNSNLNNEINKICKYNLDQTDILLDDSNSERRRNSKFKIKNTNYYDNLMLQNKYTNSILYDDDDDKNNTETYTCTFKTEDQIRVPSQKKKYIYLYNKYDNATLDLNVHTYMSLGMSILCKYSLLYCGKYNHIPRDPYTPFKKPVSILSLDGGGILTISTLLVLNRLEAELRKEIGSDDIKLIDCFDMVCGTSAGGLISLALLREIDLQDVSNMWPSTIKKVFEGNRNIISGIFFEGYDVNNVKDVFLERMGNKFMSSYKKFYCFVTATDVKHKPYKLFLIRNYTHKYNSINAESYDGINKVPLWLAAWATASAPTYLKGPSAEDIKKLGINIKPEIHLVDGALKASNPALIALEECARLNNKNLSTFIKEDLDTLVSIGTGQVPTKLTQSGASSKSASTFEILINSTHLLTRANDTHREVLQRLADRENTYFRFNVPHIGDIEIDSQDVRDFDLISKATQDYLFDEKFYEIKRLAHKLANNYIRSKYL | not soluble
2 | MAHHHHHHMSEREHDETPVTAEGSAAAHEGSNMDLNGNESRASYIKTDLGELNMIESMCPKCQETGTTRLMITSIPHFKEIIVSSFECQHCGEVNNEVAFGGTFGPKRVRYELQVRSKQDLDRQVVKSEFATIAIPELELEIPPESQKGNLNTIEGVLEQTYSGLQLQQPLRKIQHPDVYEKIEAFCAKLASFRSGDVPFTLTLDDPAGNSYIEPIHDYYHPTLDPQLTKYEKERTEIDRQLLGIALDYNTERTQEEEKDVEEGQFSDVTQILCDCPACRRPGYIMMHECDIPYFKQTIIMAFKCEYCGYKSNEIKAGGEINAKGLRLVLHVTSEADLKRDVLKSDTATLIIPEVRLELAPGTLGGFFSTVEGTITQVRDQLMNLPQAAFAAGDSADDNSKTMLEFVKELDELLALREEFTFILDDPLGNVYIQNPCSHLPPPDDVDPKLEREEYTRTEEQDEELGILSMRHNEGQAGIEKSEDEADHEGEERNGAAAEEQETQQ | soluble
3 | MAHHHHHHMSFKEMRLAFEGSKNIYESSLLTFKGVDGYDVYNCSLLFQYKGKHHLFGRFERREKSSDSRVRLFVETGKDEYTVVPDQLTYQLEDPFVSKVQGSLFFGGTQVIKSGGNVTGYFCDFYHGMPQLLTYYTTGPDLMRSIRIVQLADGTIGIFSCHKTEGSCLIGFTTVNSLNEVTREVIAEAKPINNAPFLGAWGGVNQAYLLSSGNIGCICHHGYLDKDANGEQRNVCCITSFVYDPKRNNTHTFQLIGTRGCFPDCPSKSPSVADCAFASGIVMREDGKCDLYSGLGDTHEGRITIDYPFKGYGTVVNDLVF | soluble
4 | MAHHHHHHMSGENIKNLLAPQPTVDQGPYSGKYEKRMVDLPKPTYSTFYNKNKEFDSTHPRYFKQRDAVIGPIVNDTVDPKNFLRTGQGIKHIVPPVPHKKQHRKDFLDCGDIRKRTQGAMEPADQQQKESSGMGGMGSLANTNGVGGQAGDGIREHDMSSNDPERKGEQANGGDTGLRGTGNVESAVGSCDNKNNFQGAATGDNGRCHLNSLDRSRCKKDFVTSNIIDVDNMVPKRRKDQPEDPTRRKTFGRVPGYIGRVKEVIEKERMQLKAIGEARTNNRLERVGKFVYRLDEQERLNMISKLRAKLTEKGAELNRMPFAKDTYIQMKRKSDLEKRIKEIESSLEKLEKDAVFIYSDDPRVVHWTKDAAFEEARLFASD | not soluble
5 | MAHHHHHHMSILCTISGQTPEEPVVSKTGYVFEKRLIEKHILNYGICPVSGEVLTLQDLYPLKNEQVVKPRPITASSIPGLLSILQTEWDAIISEMFTLRTHVNDIRNQLTHSLYQYDAATRVIAKLLKEKNDYKEEVKKLRNQILSIKSGNDLNEFEVGLSEDLLNEMQEVAKNLLMTRKKRNIEHVSSAEQWKEVTNTNEFDVHSAAIPGVTCLSLDINELKYSYYDDHKNHSFFSGGMDGNVYYVSLEQSKVLAKLQGHLKKVTAIVAHPKYSLCISGANDKTVRIWKGDVETNEFATAHVIAKHKDQITSLALHPMENYFVSSSKDNVWILNDLETSRSIKICKDTPSPFRQLAIHPDGIMLGIGCEDSNIHIFDMKSQEYKASLSGHTSHVSYISFSENGYYLASCSKDKTVKLWDLRKAQCFQTIDVEELPRSICFDFSGKYLSLAAGNDVHVFNFEAKTKAVLVNTLSAHTDAVTQTCFGSRTAYLLSSSMDKTVKVWS | not soluble
6 | MAHHHHHHMSKKERYKIWKRIPKCELHCHLDLCFSADFFVSCIRKYNLQPNLSDEEVLDYYLFAKGGKSLGEFVEKAIKVADIFHDYEVIEDLAKHAVFNKYKEGVVLMEFRYSPTFVAFKYNLDIELIHQAIVKGIKEVVELLDHKIHVALMCIGDTGHEAANIKASADFCLKHKADFVGFDHGGHEVDLKEYKEIFDYVRESGVPLSVHAGEDVTLPNLNTLYSAIQVLKVERIGHGIRVAESQELIDMVKEKNILLEVCPISNVLLKNAKSMDTHPIRQLYDAGVKVSVNSDDPGMFLTNINDDYEELYTHLNFTLEDFMKMNEWALEKSFMDSNIKDKIKNLYF | not soluble
7 | MAHHHHHHMSLNAADAADERSRKEMDRFQVERMAGQGTFGTVQLGKEKSTGMSVAIKKVIQDPRFRNRELQIMQDLAVLHHPNIVQLQSYFYTLGERDRRDIYLNVVMEYVPDTLHRCCRNYYRRQVAPPPILIKVFLFQLIRSIGCLHLPSVNVCHRDIKPHNVLVNEADGTLKLCDFGSAKKLSPSEPNVAYICSRYYRAPELIFGNQHYTTSVDIWSVGCIFAEMMLGEPIFRGDNSAGQLHEIVRVLGCPSREVLRKLNPSHTDVDLYNSKGIPWSSVFCDHSLKDAKEAYDLLSALLQYLPEDRMKPYEALCHPYFDELHDSATKLPNNKDLPEDLFRFLPSEIEVMSEAQKAKLVRK | not soluble
8 | MAHHHHHHMSLPRRMCMFATCQSNRKSCSMRQSSVTSEGYRYSSTFAAGRLFDAVYVINLDRRPDRWEFATQQLSRAGFLHEEYVRFPAVDGRNVDLQKAHACGLISRLGLLRLQEPEHRRIWGMDLNPGAVGCALSHALLWAQIAASRHRSVLVVEDDSLFPQDFHHKYEARAKQVPSDWELLYVSGLDTAGQAPQLRVAEGVCRVPQMHRTTNCYVVSHRGARLLLDACFPVTYQLDTMMTLRTAGDGAGGVPYVTVPNCYTLQPPLVVQATRMGSDIQSASGGVCDRDEVEEERARCRAAGWEVQETGTLVP | not soluble
9 | MAHHHHHHMSRKRVRAEDIHYWLLKSEPHKFSIDDLAKQKTSPWDGVRNYAARNNMRAMSVGDKVLFYHSNTKEPGVAGLAEVVRLAYDDFTALDKTSEYFDPKATKEKNPWKMVDVKFVARWDTVLTLHELKSRRELQKMALFTQRRLSVQPVSASEYAYILRMNEEQQRK | soluble
10 | MAHHHHHHMSSKRTEGTAADEERRRTSAASSGSSSVSSTDSDEASSSVSDSSSSGSGSSSDSESSDSERPSSTPQRQSAAAAERATSTQQLQQQRHVQLNPELRFERPDKEYIPLPPLRDMQDMVKVLFLLSTDKKRYPDGRHRTLDYFRVAVEMFVTEVRQEYKRQYQQAQRNGRAMQRFTWKNSGELAICFACCCDNVKLLYDSLQPGPLKPLWDAFVGQLPPMLIVQSRVPETMLSSQTYHTKYMDWVKGGTRYGGEQSTANVRFPSVADRRVKVETYLRSGAGYKIEAVQVGSTPAAPAAVPAAVAPRPSLAAAAAPMQALETRAPFAGRLPGTGSAKVPVAPGVGGPRPPVKVPMKHVGGGVAHGSVTTAAAPPLASTSVKQMPPEMKHLFWLSVLAHVKGGEASRAFPDDRLEALPGLLRLCEMTEHTEEMCILMDVLAASSSGVQTVFERLGGLLSFRRFASHFIQSEEAEPLMQLVEQLARWRVAAWGSTSQQAWQTDMNQRRTRDLMWLRTLPLIPEAKRAAWGALLLVMEQRYIFKAPRPDDTTAVDNPLKRRRSEVELGDLHAVLSDNVDMQRWVVPRVNVFSAVRLPVELRVPPLCTKLEENTVRFLNAKREYAEKMQVTWRERLEKILSAQPRAPGPAVPVPLWYDPYALLRVASPQP | soluble
11 | MAHHHHHHMSSPQVVCEAKKAFEANKRVYESVLLTFKGVDGYDVYNCSVPFSYKGKTHIYGRVEKRDIWAASHVRLFEETGKDEFTAVPDGMTWLLEDPFVSSVKGEALFGGTRIRKVSNRLLSYYCDFFRGGIEQGLYFTTGPDNMKDIRCVELANGSIGVFSRPKTDVYTCIGFTIIDDLSELTQKVINEAEPLNVLHPGAWGGVNQAYLLTSGKVGCIAHYSYNSKDDKDCPTSVYLNYSFVLDPETKQAEMERIIGTRSCYPDYPVKAERLIDCAFSSGIVMREDGKCDLYSGLGDTCEGRIAIDYPFEGYGAVVDQLSF | soluble

— the DeepSol protein solubility set
